The subject of series [1] is HeLa cells. Kind of series: SCC1 cleavage and securin degradation in synchronized HeLa cells released into the cell cycle in the presence of nocodazole. Conditions: double-thymidine synchronized, immunoblot. Type of series: cell-based, human. On the procedure: For cell cycle synchronization, a double-thymidine treatment was used. HeLa cells were first treated with 2 mM thymidine for 18 h. Subsequently, cells were washed with PBS, fresh medium was added and the cells were grown for another 8 h. Then the cells were treated again with 2 mM thymidine for 18 h, subsequently washed and incubated in fresh medium. Samples were taken at different time points. Samples were splitted and used for FACscan analysis and for immunoblotting. Cell extracts were made with glass-teflon potters in ice cold buffer containing 50 mM Tris pH 7.7, 100 mM NaCl, 20 mM b-glycerophosphate, 5 mM MgCl2, 1 mM NaF, 0.1-0.2% Triton X-100, 10% Glycerol, 1 mM DTT and protease inhibitors).
In some experiments logarithmically growing HeLa cells were treated with 330 nM nocodazole dissolved in 0.1% DMSO for 18 hours, or cells synchronized by double-thymidine treatment were released into nocodazole-containing medium for different periods of time. […]
HeLa cells stably expressing SCC1-myc were synchronized by double-thymidine treatment and were released into the cell cycle in the presence of either DMSO (results shown in FIGS. 11A and C) or nocodazole dissolved in DMSO (results shown in FIGS. 11B and D). […] Cells were analyzed by FACsan (FIGS. 11A and B) and by immunoblotting of whole cell extracts using the indicated antibodies (FIGS. 11C and D). […]

For series [2], the system named is HeLa cells. As to the kind of experiment: Association of human SCC1 with chromatin (quantitative immunoblotting of chromatin and supernatant fractions). Conditions: HeLa cells arrested in metaphase by nocodazole (56% in logarithmically growing cells). The format is cell-based. On the procedure:
In some experiments logarithmically growing HeLa cells were treated with 330 nM nocodazole dissolved in 0.1% DMSO for 18 hours, or cells synchronized by double-thymidine treatment were released into nocodazole-containing medium for different periods of time. In control experiments 0.1% DMSO was added without nocodazole. Chromatin and supernatant fractions were prepared from HeLa cells that were either growing logarithmically (log) or were arrested in metaphase with nocodazole (noc). Proteins from equivalent aliquots of these fractions were separated by SDS-PAGE and analyzed for the presence of SCC1 by immunoblotting using radiolabeled antibodies (FIG. 8, top panel), The intensities of the SCC1 bands were quantitated (FIG. 8, bottom panel).
(Immunoblotting shows a protein as a band on a membrane.)

In series [3] the target is T1, Scc1p tagged with multiple HA epitopes, chromatin-bound (chromatin of nocodazole-arrested yeast), Q12158.
T1 chain: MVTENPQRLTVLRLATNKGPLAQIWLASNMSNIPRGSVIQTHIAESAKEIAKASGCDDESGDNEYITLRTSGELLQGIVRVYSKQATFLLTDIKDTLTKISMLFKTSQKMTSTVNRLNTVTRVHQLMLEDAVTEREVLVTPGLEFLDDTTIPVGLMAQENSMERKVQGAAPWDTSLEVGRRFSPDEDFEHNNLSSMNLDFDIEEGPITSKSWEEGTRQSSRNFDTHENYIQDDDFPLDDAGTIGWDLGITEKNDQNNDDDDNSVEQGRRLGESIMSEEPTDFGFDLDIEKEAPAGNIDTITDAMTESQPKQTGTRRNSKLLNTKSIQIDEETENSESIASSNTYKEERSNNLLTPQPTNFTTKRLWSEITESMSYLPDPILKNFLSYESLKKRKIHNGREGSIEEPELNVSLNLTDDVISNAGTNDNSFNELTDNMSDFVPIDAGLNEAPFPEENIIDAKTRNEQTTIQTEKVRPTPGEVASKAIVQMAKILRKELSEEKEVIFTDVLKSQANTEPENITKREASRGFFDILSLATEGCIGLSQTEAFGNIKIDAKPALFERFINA

The target of series [4] is T2, Scc1p R180D R268D double mutant, HA tagged (non-cleavable Scc1p), Q12158.
T2 chain: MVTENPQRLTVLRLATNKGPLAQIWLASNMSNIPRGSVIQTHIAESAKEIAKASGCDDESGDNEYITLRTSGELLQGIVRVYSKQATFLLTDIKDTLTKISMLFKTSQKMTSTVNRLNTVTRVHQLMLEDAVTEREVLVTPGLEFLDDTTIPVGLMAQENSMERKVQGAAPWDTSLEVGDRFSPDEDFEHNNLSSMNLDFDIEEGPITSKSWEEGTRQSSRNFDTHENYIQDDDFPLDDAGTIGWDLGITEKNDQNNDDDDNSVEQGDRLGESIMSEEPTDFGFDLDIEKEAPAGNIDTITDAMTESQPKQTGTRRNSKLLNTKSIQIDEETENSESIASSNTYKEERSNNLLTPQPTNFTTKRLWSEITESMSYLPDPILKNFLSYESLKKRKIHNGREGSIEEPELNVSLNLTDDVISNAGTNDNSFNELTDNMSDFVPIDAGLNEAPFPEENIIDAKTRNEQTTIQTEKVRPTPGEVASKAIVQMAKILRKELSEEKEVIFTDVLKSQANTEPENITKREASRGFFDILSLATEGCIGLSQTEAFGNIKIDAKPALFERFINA

The target in series [5] is T3, Scc1p with arginine 268 mutated to aspartic acid, HA tagged, Q12158.
T3 chain: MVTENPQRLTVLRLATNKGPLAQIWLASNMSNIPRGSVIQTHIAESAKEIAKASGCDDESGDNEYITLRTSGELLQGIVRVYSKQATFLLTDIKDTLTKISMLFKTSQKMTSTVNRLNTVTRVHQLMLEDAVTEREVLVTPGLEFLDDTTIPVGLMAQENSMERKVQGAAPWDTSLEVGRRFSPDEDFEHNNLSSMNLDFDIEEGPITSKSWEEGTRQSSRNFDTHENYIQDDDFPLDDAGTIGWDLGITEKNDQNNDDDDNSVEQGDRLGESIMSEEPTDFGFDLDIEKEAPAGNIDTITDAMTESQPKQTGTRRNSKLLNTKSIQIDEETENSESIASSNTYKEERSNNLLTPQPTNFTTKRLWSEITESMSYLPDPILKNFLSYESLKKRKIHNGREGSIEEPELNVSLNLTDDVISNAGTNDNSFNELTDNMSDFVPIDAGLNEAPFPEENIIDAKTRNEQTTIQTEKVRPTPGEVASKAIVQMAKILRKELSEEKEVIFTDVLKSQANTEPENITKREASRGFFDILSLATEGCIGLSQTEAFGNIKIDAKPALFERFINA

Series [6] deals with T4, Purified recombinant Scc1 with C-terminal FLAG epitope, from okadaic acid treated insect cells, mitotically phosphorylated form, Q12158.
T4 chain: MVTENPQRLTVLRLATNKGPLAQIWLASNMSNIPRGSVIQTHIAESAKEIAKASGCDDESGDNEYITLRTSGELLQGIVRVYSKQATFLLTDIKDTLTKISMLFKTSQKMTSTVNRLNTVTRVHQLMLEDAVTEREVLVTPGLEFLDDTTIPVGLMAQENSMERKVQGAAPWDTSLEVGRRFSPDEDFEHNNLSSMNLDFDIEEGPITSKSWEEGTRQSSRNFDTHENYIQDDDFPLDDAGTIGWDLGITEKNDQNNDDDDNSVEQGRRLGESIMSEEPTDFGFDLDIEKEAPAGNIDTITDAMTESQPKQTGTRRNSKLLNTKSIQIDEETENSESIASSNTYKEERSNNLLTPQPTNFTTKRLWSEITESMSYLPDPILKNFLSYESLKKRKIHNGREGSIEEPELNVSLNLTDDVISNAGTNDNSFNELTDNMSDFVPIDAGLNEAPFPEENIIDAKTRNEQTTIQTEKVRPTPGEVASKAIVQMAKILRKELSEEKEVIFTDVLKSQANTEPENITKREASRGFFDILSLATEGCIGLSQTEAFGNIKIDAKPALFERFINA

The target of series [7] is T5, Scc1p tagged with myc epitopes at the C-terminus (endogenous wild type), Q12158.
T5 chain: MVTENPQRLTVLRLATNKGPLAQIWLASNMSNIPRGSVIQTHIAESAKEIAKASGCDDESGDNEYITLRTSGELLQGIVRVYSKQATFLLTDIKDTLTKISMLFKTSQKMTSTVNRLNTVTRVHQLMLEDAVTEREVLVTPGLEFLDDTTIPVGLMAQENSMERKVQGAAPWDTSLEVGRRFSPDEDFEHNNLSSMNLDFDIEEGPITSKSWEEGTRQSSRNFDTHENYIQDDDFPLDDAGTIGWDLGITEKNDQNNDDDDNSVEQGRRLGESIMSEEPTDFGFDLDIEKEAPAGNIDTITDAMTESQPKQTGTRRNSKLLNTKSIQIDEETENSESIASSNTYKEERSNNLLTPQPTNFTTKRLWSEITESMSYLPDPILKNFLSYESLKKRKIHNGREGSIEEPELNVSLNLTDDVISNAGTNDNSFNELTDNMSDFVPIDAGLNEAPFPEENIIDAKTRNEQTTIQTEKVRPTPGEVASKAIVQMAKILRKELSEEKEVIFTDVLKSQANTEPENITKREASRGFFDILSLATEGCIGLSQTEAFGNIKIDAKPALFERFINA

Series [8] concerns the target T6, Purified recombinant Scc1 with C-terminal FLAG epitope, from baculovirus-infected insect cells, unphosphorylated, Q12158.
T6 chain: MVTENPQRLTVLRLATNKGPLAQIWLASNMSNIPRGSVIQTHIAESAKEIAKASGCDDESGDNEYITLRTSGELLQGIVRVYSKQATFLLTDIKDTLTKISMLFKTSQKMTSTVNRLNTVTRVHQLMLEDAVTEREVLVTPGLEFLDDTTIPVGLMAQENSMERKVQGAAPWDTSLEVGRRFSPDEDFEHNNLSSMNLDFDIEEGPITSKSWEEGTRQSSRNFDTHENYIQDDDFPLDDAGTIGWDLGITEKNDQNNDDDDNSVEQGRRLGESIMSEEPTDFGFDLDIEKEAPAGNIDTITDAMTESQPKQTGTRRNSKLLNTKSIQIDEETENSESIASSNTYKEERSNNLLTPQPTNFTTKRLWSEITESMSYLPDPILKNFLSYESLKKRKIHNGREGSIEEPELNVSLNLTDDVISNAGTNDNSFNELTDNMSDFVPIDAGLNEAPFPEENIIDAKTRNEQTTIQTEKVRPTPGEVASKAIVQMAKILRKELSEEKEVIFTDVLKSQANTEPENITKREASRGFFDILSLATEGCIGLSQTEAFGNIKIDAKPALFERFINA

Regarding `COC(=O)Nc1nc2ccc(C(=O)c3cccs3)cc2[nH]1` [nocodazole], in series [1], the “cleavage of SCC1” value was “no cleavage of SCC1 could be observed” and the securin degradation result is given as “not degraded”. Moreover, the “amount of the total cellular SCC1 associated with chromatin” value in series [2] turned out to be 13%.

B1: Esp1p (yeast separin), wild type, overproduced from the GAL1-10 promoter in yeast cell extract (protein)
chain: MMVKQEEPLNEISPNTPMTSKSYLLNDTLSKVHHSGQTRPLTSVLSGDASSNSIGILAMHNNIIRDFTKIASNNIDLAIEDITTVDHSLNSIYSLLKSHHMWGHINSTVKQHLMIIVKLINNNALGLASSEIIFLFNETNLFQAHSLKNILLADFSTWNDYYLSNLKILALQIILKRKLVDEYLPHILELFSHDKRYLLKDPNLKAHALTKIVLSFFSVTTSCKVLFGLKFLQYIKQFKLPFKKFISNITVECFSKNLLHKNYLEMGPNKIYLNSFYLSYSMLYDGLDKIMLLDILSYEETTEVQRAIKSKKEFNEYCNMSENRLLWSCISVDDLNVILENATNFLQNKGKHISATLKCLVCLWSTIRLEGLPKNKDILRQFDCTVIYINSNIKSINDESAAALLSELLGVLSEICIDYKEPKRLSNIISVLFNASVLFKSHSFLLKTANLEISNVLISNDSKTSHRTILKFEKFISSAQSAQKKIEIFSCLFNVYCMLRNDTLSFVFDFCQNAFIHCFTRLKITKFIEFSNSSEIMLSVLYGNSSIENIPSENWSQLSRMIFCSLRGIFDLDPLELNNTFDKLHLLNKYELLIRIVYLLNLDMSKHLTTNLSKITKLYINKWLQKSDEKAERISSFEMDFVKMLLCYLNFNNFDKLSIELSLCIKSKEKYYSSIVPYADNYLLEAYLSLYMIDDALMMKNQLQKTMNLSTAKIEQALLHASSLINVHLWDSDLTAFQIYFGKTLPAMKPELFDINNDHNLPMSLYIKVILLNIKIFNESAKLNIKAGNVISAVIDCRKAQNLALSLLKKKNKLSQGSRLALLKSLSFSFFQLIKIHIRIGSARDCEFYSKELSRIISDLEEPIIVYRCLHFLHRYYMITEQTCLQNITLGKANKAFDYLDAEADITSLTMFLYDNKEFVKLEQSLVLYFGDQLEKTFLPNLWKLHLGKDIDDSICLSEYMPKNVINRVHNMWQKVMSQLEEDPFFKGMFESTLGIPSSLPVIPSTMPNNILKTPSKHSTGLKLCDSPRSSSMTPRGKNIRQKFDRIAAISKLKQMKELLESLKLDTLDNHELSKISSLSSLTLTILSNITSIHNAESSLITNFSLTDLPRHMPLLFDKVLNNIDNKNYREFRVSSLIAPNNISTITESIRVSAAQKDLMESNLNINVITIDFCPITGNLLLSKLEPRRKRRTHLRLPLIRSNSRDLDEVHLSFPEATKKLLSIINESNQTTSVEVTNKIKTREERKSWWTTRYDLDKRMQQLLNNIENSWFNGVQGFFSPEVVDNSLFEKFKDKFYEILHQNLPSRKLYGNPAMFIKVEDWVIELFLKLNPQEIDFLSKMEDLIYFVLDILLFHGEENAYDEIDFSMLHVQLEEQIKKYRATMTTNSIFHTFLVVSSSCHLFPWECLSFLKDLSITRVPSYVCLNKLLSRFHYQLPLQVTIEDNISMILNPNGDLSRTESKFKGMFQKIIDAKPSSQLVMNEKPEEETLLKMLQNSNLFVYIGHGGGEQYVRSKEIKKCTKIAPSFLLGCSSAAMKYYGKLEPTGTIYTYLLGGCPMVLGNLWDVTDKDIDKFSEELFEKMGFRCNTDDLNGNSLSVSYAVSKSRGVCHLRYLNGAAPVIYGLPIKFVS
For B1, the “Scc1p cleavage and dissociation from chromatin in vitro (Western blot of chromatin and supernatant fractions)” value in series [3] is “most disappears from the chromatin fraction upon incubation with extracts containing high levels of wild type Esp1 protein”. Besides, the “Scc1p cleavage in Esp1-containing extracts (chromatin substrate)” value is “HA tagged double mutant protein was no longer cleaved when incubated in Esp1-containing extracts” in series [4] and “the myc tagged wild type protein was efficiently cleaved” in series [7]. The “Scc1p cleavage in the Esp1 assay (chromatin substrate)” value in series [5] is recorded as “cleavage at site 268 was indeed eliminated by the aspartic acid mutation. However, the mutated protein was still cleaved in an Esp1-dependent manner”. The “cleavage assay using purified Scc1 (Western blot, anti-FLAG)” value in series [6] was “the efficiency of cleavage was much greater when Scc1 was in the mitotically phosphorylated state”; in series [8] it was “Both unphosphorylated and phosphorylated purified Scc1 were cleaved in an Esp1-dependent manner in vitro”.

Values taken from patent US7410774B1, “Compounds modulating sister chromatid separation and method for identifying same” (Boehringer Ingelheim International GmbH, priority 1999, dated 2008).
